From PMC3542428, “Functional Insights from the Crystal Structure of the N-Terminal Domain of the Prototypical Toll Receptor” (Structure(London, England:1993), 2013)

Experiments:
[1] = molecular target: Toll (Drosophila melanogaster) (UniProt P08953); conditions: cited from earlier work
[2] = molecular target: TollN6-VLR (hybrid of Toll residues 28-228 and variable lymphocyte receptor B.61 residues 133-201) (Drosophila melanogaster | hagfish) (UniProt P08953); assay: dynamic light scattering; 100 mM NaCl, 50 mM Tris-HCl pH 7.0, about 200 μg/ml; Z-average diameter 12.7 nm, polydispersion index about 0.1
[3] = molecular target: T1, full-length Toll ECD (extracellular domain of Drosophila melanogaster Toll) (Drosophila melanogaster, UniProt P08953 28-807); assay: SEC; data not shown; same preparation of C-106 with full-length Toll ECD, complexes elute as 280 kDa species; conditions: both partners purified
T1 construct: Toll, Drosophila melanogaster, UniProt P08953, full-length extracellular domain; Also used as the target of the functional row on endogenous Toll of S2 cells (no molecule of its own was made for the whole receptor); also called full-length ECD; full-length ectodomain
T1 sequence (looked up): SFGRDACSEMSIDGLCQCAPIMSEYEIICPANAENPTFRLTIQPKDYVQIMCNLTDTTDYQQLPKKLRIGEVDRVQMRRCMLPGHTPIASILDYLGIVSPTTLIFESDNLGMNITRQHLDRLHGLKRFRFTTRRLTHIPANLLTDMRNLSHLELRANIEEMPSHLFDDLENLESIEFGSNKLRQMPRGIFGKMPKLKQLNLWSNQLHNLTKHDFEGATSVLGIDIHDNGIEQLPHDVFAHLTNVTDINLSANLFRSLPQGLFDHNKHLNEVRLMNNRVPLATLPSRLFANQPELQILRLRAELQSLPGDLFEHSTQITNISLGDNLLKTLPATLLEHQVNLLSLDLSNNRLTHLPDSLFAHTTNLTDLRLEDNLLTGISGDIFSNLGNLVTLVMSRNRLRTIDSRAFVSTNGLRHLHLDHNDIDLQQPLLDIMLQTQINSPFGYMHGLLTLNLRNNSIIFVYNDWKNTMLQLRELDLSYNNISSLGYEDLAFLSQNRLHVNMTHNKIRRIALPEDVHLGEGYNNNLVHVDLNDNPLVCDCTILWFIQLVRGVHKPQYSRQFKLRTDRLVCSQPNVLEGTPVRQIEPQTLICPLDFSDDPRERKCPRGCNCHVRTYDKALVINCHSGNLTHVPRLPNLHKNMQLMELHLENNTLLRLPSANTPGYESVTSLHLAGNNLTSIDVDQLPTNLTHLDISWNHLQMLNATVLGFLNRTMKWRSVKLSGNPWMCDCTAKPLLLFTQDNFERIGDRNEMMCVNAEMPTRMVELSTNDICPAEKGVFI

[4] = molecular target: T2, TollN13-VLR (Toll N-terminal region up to LRR13 fused to VLR B.61 residues 133-201) (Drosophila melanogaster | hagfish, UniProt P08953 28-397; Q4G1L2 133-201); assay: SEC; gel filtration of the Toll-VLR constructs alone and mixed with Spz C-106 (TollN6-VLR and C-106 in equimolar concentrations); conditions: both partners purified
T2 construct: Toll, Drosophila melanogaster, UniProt P08953, residues 28-397 (first 13 LRRs); cloned as residues 1-397 with its own signal peptide; the results say 'up to Leu 398 in LRR13'; variable lymphocyte receptor (VLR) B.61 of hagfish, residues Asn 133-Thr 201 (LRRCT cap); C-terminal limit of the Toll part is printed as 397 (methods, discussion) and as Leu 398 (results); also called larger Toll …
T2 chain (looked up): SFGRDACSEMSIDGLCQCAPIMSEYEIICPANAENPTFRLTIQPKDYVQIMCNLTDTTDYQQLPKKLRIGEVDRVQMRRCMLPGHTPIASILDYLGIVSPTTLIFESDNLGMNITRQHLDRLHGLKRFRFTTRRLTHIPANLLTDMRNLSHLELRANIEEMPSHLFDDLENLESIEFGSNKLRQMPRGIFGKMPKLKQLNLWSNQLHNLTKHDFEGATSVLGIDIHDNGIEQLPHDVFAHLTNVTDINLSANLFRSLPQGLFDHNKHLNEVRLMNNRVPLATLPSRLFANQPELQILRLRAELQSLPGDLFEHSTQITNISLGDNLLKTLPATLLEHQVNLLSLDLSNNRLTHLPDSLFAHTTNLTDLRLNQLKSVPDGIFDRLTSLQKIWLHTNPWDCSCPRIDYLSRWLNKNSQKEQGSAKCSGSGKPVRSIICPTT

[5] = molecular target: single and double mutations of Cys 34, Cys 43 and Cys 45 in the Toll-TLR4 chimera

Toll (from UniProt P08953)
Kd [1]: 2000 nM

TollN6-VLR (hybrid of Toll residues 28-228 and variable lymphocyte receptor B.61 residues 133-201) (from UniProt P08953 28-228; Q4G1L2 133-201) (domain or fragment)
stoichiometry N [2]: 4

B1: Spätzle C-106 (C-terminal active fragment of 106 amino acids of processed Spätzle) (ligand, Drosophila melanogaster, UniProt P48607 221-326, looked up)
chain: VGGSDERFLCRSIRKLVYPKKGLRADDTWQLIVNNDEYKQAIQIEECEGADQPCDFAANFPQSYNPICKQHYTQQTLASIKSDGELDVVQNSFKIPSCCKCALKTG
notes: Spätzle (Spz), Drosophila melanogaster; also called cleaved Spz; source: baculovirus expression system, His-tagged Spätzle, purified
stoichiometry N [3]: 1 ratio (2:2 as printed) | stoichiometry N [4]: 1 ratio (1:1 as printed) | NF-κB luciferase reporter in HEK293ET cells transfected with the Toll-TLR4 chimera, 24 hr after Spz stimulation at 10 nM; decrease of the signal against the wild-type chimera [5]: 10 % decrease
